# In patent US20220235109A1 (CUGENE, published 2022):
# T1: IL-2Rβγ on human CD8+ T cells, NK cells and CD4+ T cells (human, UniProt P14784 27-551; P31785 23-369)
# T1 sequence (looked up) 1: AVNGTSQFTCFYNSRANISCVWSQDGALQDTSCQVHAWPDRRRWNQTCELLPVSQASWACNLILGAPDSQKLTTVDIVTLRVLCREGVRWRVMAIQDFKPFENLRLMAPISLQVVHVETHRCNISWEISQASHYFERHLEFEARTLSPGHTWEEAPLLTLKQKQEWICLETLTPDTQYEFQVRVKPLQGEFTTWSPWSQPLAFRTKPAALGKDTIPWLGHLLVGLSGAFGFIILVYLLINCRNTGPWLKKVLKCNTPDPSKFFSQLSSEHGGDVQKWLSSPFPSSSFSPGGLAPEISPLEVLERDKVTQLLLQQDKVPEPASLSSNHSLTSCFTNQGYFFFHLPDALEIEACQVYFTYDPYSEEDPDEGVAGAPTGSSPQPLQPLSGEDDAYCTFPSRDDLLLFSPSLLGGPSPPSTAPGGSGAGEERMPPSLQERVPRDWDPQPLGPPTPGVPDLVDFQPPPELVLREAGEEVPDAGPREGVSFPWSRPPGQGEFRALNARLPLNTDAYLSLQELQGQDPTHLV
# T1 sequence (looked up) 2: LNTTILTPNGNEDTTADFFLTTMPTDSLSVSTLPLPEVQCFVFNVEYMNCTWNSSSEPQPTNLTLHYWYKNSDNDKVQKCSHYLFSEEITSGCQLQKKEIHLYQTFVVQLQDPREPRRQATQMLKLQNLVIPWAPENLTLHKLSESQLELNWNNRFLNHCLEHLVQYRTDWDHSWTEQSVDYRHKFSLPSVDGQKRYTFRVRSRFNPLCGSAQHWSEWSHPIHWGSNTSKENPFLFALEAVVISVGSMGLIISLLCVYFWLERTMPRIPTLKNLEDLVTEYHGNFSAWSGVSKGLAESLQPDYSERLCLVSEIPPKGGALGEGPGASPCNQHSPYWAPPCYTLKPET
# Target: T1, IL-2Rβγ on human CD8+ T cells, NK cells …
# Assay: cell-based or functional assay
"Ki67 EC50 (nM), CD8+ T [nM]","Ki67 EC50 (nM), NK [nM]","pSTA5 EC50 (pM), CD8+ T [pM]","pSTA5 EC50 (pM), NK [pM]",Binder
1.7,3.6,73,643,"P-0880 (antibody, human IgG1, kappa) heavy 1: not shown heavy 2: EVQLVESGGGLVKPGGSLRLSCAASGFTFSSYDMSWVRQAPGKGLEWVATISGGGSYTYYPDSVKGRFTISRDNAKNSLYLQMNSLRAEDTAVYYCASPDSSGVAYWGQGTLVTVSSASTKGPSVFPLAPSSKSTSGGTAALGCLVKDYFPEPVTVSWNSGALTSGVHTFPAVLQSSGLYSLSSVVTVPSSSLGTQTYICNVNHKPSNTKVDKKVEPKSCDKTHTCPPCPAPEAAGAPSVFLFPPKPKDTLMISRTPEVTCVVVDVSHEDPEVKFNWYVDGVEVHNAKTKPREEQYNSTYRVVSVLTVLHQDWLNGKEYKCKVSNKALPAPIEKTISKAKGQPREPQVCTLPPSREEMTKNQVSLSCAVKGFYPSDIAVEWESNGQPENNYKTTPPVLDSDGSFFLVSKLTVDKSRWQQGNVFSCSVMHEALHNHYTQKSLSLSPG light: DIVMTQSPLSLPVTPGEPASITCKASQDVETVVAWYLQKPGQSPRLLIYWASTRHTGVPDRFSGSGSGTDFTLKISRVEAEDVGVYYCQQYSRYPWTFGQGTKLEIKRTVAAPSVFIFPPSDEQLKSGTASVVCLLNNFYPREAKVQWKVDNALQSGNSQESVTEQDSKDSTYSLSSTLTLSKADYEKHKVYACEVTHQGLSSPVTKSFNRGEC"
9.3,21,249,2330,"P-0885 (antibody, human IgG1, kappa) heavy 1: EVQLVESGGGLVKPGGSLRLSCAASGFTFSSYDMSWVRQAPGKGLEWVATISGGGSYTYYPDSVKGRFTISRDNAKNSLYLQMNSLRAEDTAVYYCASPDSSGVAYWGQGTLVTVSSASTKGPSVFPLAPSSKSTSGGTAALGCLVKDYFPEPVTVSWNSGALTSGVHTFPAVLQSSGLYSLSSVVTVPSSSLGTQTYICNVNHKPSNTKVDKKVEPKSCDKTHTCPPCPAPEAAGAPSVFLFPPKPKDTLMISRTPEVTCVVVDVSHEDPEVKFNWYVDGVEVHNAKTKPREEQYNSTYRVVSVLTVLHQDWLNGKEYKCKVSNKALPAPIEKTISKAKGQPREPQVYTLPPCREEMTKNQVSLWCLVKGFYPSDIAVEWESNGQPENNYKTTPPVLDSDGSFFLYSKLTVDKSRWQQGNVFSCSVMHEALHNHYTQKSLSLSPGGGGGSGGGGSGGGGSAPTSSSTKKTQLQLEHLLQDLQMILNGINNYKNPKLTRMLTFKFYMPKKATELKHLQCLEEELKRLEEVLNLAQSKNFHLRPRDLISNINVIVLELKGSETTFMCEYADETATIVEFLNRWITFIQSIISTLT heavy 2: EVQLVESGGGLVKPGGSLRLSCAASGFTFSSYDMSWVRQAPGKGLEWVATISGGGSYTYYPDSVKGRFTISRDNAKNSLYLQMNSLRAEDTAVYYCASPDSSGVAYWGQGTLVTVSSASTKGPSVFPLAPSSKSTSGGTAALGCLVKDYFPEPVTVSWNSGALTSGVHTFPAVLQSSGLYSLSSVVTVPSSSLGTQTYICNVNHKPSNTKVDKKVEPKSCDKTHTCPPCPAPEAAGAPSVFLFPPKPKDTLMISRTPEVTCVVVDVSHEDPEVKFNWYVDGVEVHNAKTKPREEQYNSTYRVVSVLTVLHQDWLNGKEYKCKVSNKALPAPIEKTISKAKGQPREPQVCTLPPSREEMTKNQVSLSCAVKGFYPSDIAVEWESNGQPENNYKTTPPVLDSDGSFFLVSKLTVDKSRWQQGNVFSCSVMHEALHNHYTQKSLSLSPG light: DIVMTQSPLSLPVTPGEPASITCKASQDVETVVAWYLQKPGQSPRLLIYWASTRHTGVPDRFSGSGSGTDFTLKISRVEAEDVGVYYCQQYSRYPWTFGQGTKLEIKRTVAAPSVFIFPPSDEQLKSGTASVVCLLNNFYPREAKVQWKVDNALQSGNSQESVTEQDSKDSTYSLSSTLTLSKADYEKHKVYACEVTHQGLSSPVTKSFNRGEC"
77,230,513,9920,"P-0882 (antibody, human IgG1, kappa) heavy 1: EVQLVESGGGLVKPGGSLRLSCAASGFTFSSYDMSWVRQAPGKGLEWVATISGGGSYTYYPDSVKGRFTISRDNAKNSLYLQMNSLRAEDTAVYYCASPDSSGVAYWGQGTLVTVSSASTKGPSVFPLAPSSKSTSGGTAALGCLVKDYFPEPVTVSWNSGALTSGVHTFPAVLQSSGLYSLSSVVTVPSSSLGTQTYICNVNHKPSNTKVDKKVEPKSCDKTHTCPPCPAPEAAGAPSVFLFPPKPKDTLMISRTPEVTCVVVDVSHEDPEVKFNWYVDGVEVHNAKTKPREEQYNSTYRVVSVLTVLHQDWLNGKEYKCKVSNKALPAPIEKTISKAKGQPREPQVYTLPPCREEMTKNQVSLWCLVKGFYPSDIAVEWESNGQPENNYKTTPPVLDSDGSFFLYSKLTVDKSRWQQGNVFSCSVMHEALHNHYTQKSLSLSPGGGGGSGGGGSGGGGSAPTSSSTKKTQLQLEHLLHDLQMILNGINNYKNPKLTRMLTFKFYMPKKATELKHLQCLEEELKRLEEVLNLAQSKNFHLRPRDLISNINVIVLELKGSETTFMCEYADETATIVEFLNRWITFIQSIISTLT heavy 2: EVQLVESGGGLVKPGGSLRLSCAASGFTFSSYDMSWVRQAPGKGLEWVATISGGGSYTYYPDSVKGRFTISRDNAKNSLYLQMNSLRAEDTAVYYCASPDSSGVAYWGQGTLVTVSSASTKGPSVFPLAPSSKSTSGGTAALGCLVKDYFPEPVTVSWNSGALTSGVHTFPAVLQSSGLYSLSSVVTVPSSSLGTQTYICNVNHKPSNTKVDKKVEPKSCDKTHTCPPCPAPEAAGAPSVFLFPPKPKDTLMISRTPEVTCVVVDVSHEDPEVKFNWYVDGVEVHNAKTKPREEQYNSTYRVVSVLTVLHQDWLNGKEYKCKVSNKALPAPIEKTISKAKGQPREPQVCTLPPSREEMTKNQVSLSCAVKGFYPSDIAVEWESNGQPENNYKTTPPVLDSDGSFFLVSKLTVDKSRWQQGNVFSCSVMHEALHNHYTQKSLSLSPG light: DIVMTQSPLSLPVTPGEPASITCKASQDVETVVAWYLQKPGQSPRLLIYWASTRHTGVPDRFSGSGSGTDFTLKISRVEAEDVGVYYCQQYSRYPWTFGQGTKLEIKRTVAAPSVFIFPPSDEQLKSGTASVVCLLNNFYPREAKVQWKVDNALQSGNSQESVTEQDSKDSTYSLSSTLTLSKADYEKHKVYACEVTHQGLSSPVTKSFNRGEC"
